Entries after “also recorded” stand apart in the source; their conditions may differ. Primed or numbered codes have the meaning given here. Ends that are not written are not given here. DBCO′ = not defined here Some results are limits rather than exact numbers.

For data set [1], the system named is fibronectin. Briefly: Immobilization of dye-D domain conjugate on cell derived, isolated ECM / fibronectin using FXIIIa. To be noted: ECM from NIH3T3 fibroblasts (FIG. 2). In kind it is biochemical. The source says:
As proof of concept (for covalent attachment of a bioactive factor to extracellular matrix (ECM), we modified the D domain of IGF-I (SEQ ID NO: 1) with an dibenzocyclooctyne group (DBCO) at the N-terminus (SEQ: DBCO-PLKPAKSA), followed by coupling of a small molecule (fluorescent dye Azide Fluor 488) onto cell derived, isolated ECM. The ECM was produced by NIH3T3 fibroblasts and on day 6 decellularized and washed to remove cell debris and adsorbed proteins. Taking advantage of the intrinsic property of fibronectin, representing a glutamine donor for Factor XIII, we immobilized the fluorescent dye-D domain conjugate on the N-terminus of fibronectin without impairment of ECM structure and integrity.
FIG. 2: Immobilization of the covalent conjugate of the D domain (SEQ ID NO: 1) and the small molecule Azide Fluor 488 on fibronectin (isolated from human plasma) catalyzed by transglutaminase. The conjugates coupled to fibronectin in absence (lane #1) and presence (lane #2) of Factor XIIIa were transferred to a 5% SDS-PAGE gel and analyzed for fluorescence.
FIG. 3: Confocal laser scanning microscopy images of the Azide Fluor 488-D domain conjugate immobilized on isolated ECM in presence (panel 1) or absence (panel 2) of factor XIIIa. The green fluorescence of the immobilized dye-peptide conjugate co-localized with fibronectin (red fluorescence).

The next data set concerns C2C12 myoblasts. Briefly: Bioactivity of ECM-immobilized IGF-I: C2C12 myoblast proliferation (WST-1). The format is cell-based. The following applies: mouse myoblast cells, 48 hours. The method, then: (§1) To test this strategy, native IGF-I was immobilized onto fibroblast derived, isolated extracellular matrix in presence of Factor XIIIa (FIGS. 6A-6B). […] The transamidation reaction was carried out at 37° C. for 10 min in Tris buffer at pH 7.6 and is suitable for performance under physiological conditions. […] Bioactivity of immobilized IGF-I was confirmed by promoting cell proliferation of mouse myoblast cells (FIGS. 7A-7B).
FIGS. 7A-7B: Bioactivity of ECM-immobilized IGF-I. (7A) Native IGF-I was coupled to ECM in presence/absence of factor XIIIa, followed by seeding of C2C12 myoblasts on this naturally derived matrix and cell proliferation was measured after 48 hours incubation using WST-1 (Data are shown as mean±STDEV, n=3; ** p<0.01). (7B) The cells were fixed, stained with actin (green) and DAPI (cell nuclei, blue) and ECM-immobilized IGF-I was visualized using a monoclonal IGF-I antibody (red).

For data set [2], the system named is fibronectin. Briefly: Immobilization of native IGF-I on fibroblast derived isolated ECM and soluble fibronectin in presence of Factor XIIIa. The format is biochemical. The following applies: 37° C., 10 min, antibody staining (FIG. 6A). How it is done:
as §1
FIGS. 6A-6B: (6A) Confocal laser scanning microscopy images of IGF-I immobilized on isolated ECM. The immobilized IGF-I was visualized with a monoclonal IGF-I antibody (green) und co-localized with fibronectin (red). (6B) Western Blot of human IGF-I after incubation with fibronectin in presence (lane 1) and absence (lane 2) of factor XIIIa with unreacted IGF-I as control (lane 3).

The target in a further data set is T1, Factor XIIIa (Homo sapiens, UniProt P00488).
T1 construct: purchased Fibrogammin®
T1 sequence (P00488 39-732 limits assumed): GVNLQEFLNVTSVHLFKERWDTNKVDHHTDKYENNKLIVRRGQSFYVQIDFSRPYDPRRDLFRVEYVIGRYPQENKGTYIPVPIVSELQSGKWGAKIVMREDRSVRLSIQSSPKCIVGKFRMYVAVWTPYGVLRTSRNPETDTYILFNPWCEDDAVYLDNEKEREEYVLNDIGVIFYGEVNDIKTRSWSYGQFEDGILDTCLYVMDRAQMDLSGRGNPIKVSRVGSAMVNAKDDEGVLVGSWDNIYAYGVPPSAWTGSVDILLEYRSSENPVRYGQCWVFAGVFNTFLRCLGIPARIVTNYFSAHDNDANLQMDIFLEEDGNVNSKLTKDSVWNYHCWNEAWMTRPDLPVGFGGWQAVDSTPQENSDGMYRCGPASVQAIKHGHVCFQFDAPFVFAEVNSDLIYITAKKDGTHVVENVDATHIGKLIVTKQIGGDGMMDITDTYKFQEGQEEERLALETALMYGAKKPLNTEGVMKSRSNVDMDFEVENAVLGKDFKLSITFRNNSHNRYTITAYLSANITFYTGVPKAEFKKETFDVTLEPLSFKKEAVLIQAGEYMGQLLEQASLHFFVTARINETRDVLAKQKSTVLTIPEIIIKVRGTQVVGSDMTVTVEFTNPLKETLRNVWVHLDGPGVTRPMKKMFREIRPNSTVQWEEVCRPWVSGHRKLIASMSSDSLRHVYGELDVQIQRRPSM
Briefly: FXIIIa-mediated coupling of IGF-I to linker containing the glutamine substrate sequence (SDS-PAGE, western blot, HPLC kinetics). In kind it is biochemical. The method, then: The specificity and efficiency of the reaction was analyzed and compared to the isolated D domain (SEQ ID NO: 1) using a linker containing the glutamine substrate sequence derived from α-2 plasmin inhibitor and analyzed by SDS-PAGE and by western blotting using a monoclonal anti-IGF-I antibody (FIG. 4A). The transamidation was carried out at 37° C. for 5 min in Tris buffer (20 mM Tris-HCL, 150 mM sodium chloride, pH 7.6) with 0.1 M calcium chloride in presence of factor XIIIa (Fibrogammin®, activated with 0.02 U/ml thrombin). The resulting conjugate was analyzed by MALDI-MS and the site-specific conjugation confirmed. […] FIGS. 4A-4B: (4A) SDS PAGE and immunoblotting of human IGF-I after incubation with the glutamine substrate peptide modelled from the N-terminus of alpha-2 plasmin inhibitor (SEQ ID NO: 11) attached to a protease cleavable linker (PCL) in absence and presence of FXIIIa. (4B) HPLC analysis of IGF-I coupling kinetics mediated by […].

For data set [3] the following is noted: doses of 0.12 mg/kg, subcutaneous injection; cited from earlier work.
The target of data set [4] is T2, N-terminally truncated D domain of mouse IGF-I, SEQ ID NO: 8.
T2 chain: KPTKAA

The target in the next data set is T3, SEQ ID NO: 5 (-AS 67).
T3 chain: KSA

For data set [5], the target named is T4, N-terminally truncated D domain of human IGF-I, SEQ ID NO: 2.
T4 chain: LKPAKSA

Data set [6] addresses T5, N-terminally truncated D domain of mouse IGF-I, SEQ ID NO: 9.
T5 chain: PTKAA

The target in data set [7] is T6, N-terminally truncated D domain of human IGF-I, SEQ ID NO: 3.
T6 chain: KPAKSA

A further data set addresses T7, SEQ ID NO: 10 (-AS 67).
T7 chain: KAA

Data set [8] addresses T8, N-terminally truncated D domain of human IGF-I, SEQ ID NO: 4.
T8 chain: PAKSA

The target of data set [9] is T9, N-terminally truncated D domain of mouse IGF-I, SEQ ID NO: 10.
T9 chain: TKAA

Data set [10] addresses T10, D domain of human IGF-I (SEQ ID NO: 1).
T10 chain: PLKPAKSA

For data set [11], the target named is T11, N-terminally truncated D domain of human IGF-I, SEQ ID NO: 5.
T11 chain: AKSA

Data set [12] has as its target T12, D domain of mouse IGF-I (SEQ ID NO: 6).
T12 chain: PLKPTKAA

Data set [13] deals with T13, N-terminally truncated D domain of mouse IGF-I, SEQ ID NO: 7.
T13 chain: LKPTKAA

As to “Alexa488-D domain: DBCO-PLKPAKSA coupled with fluorescent dye Azide Fluor 488 ({Azide Fluor 488-DBCO′}-PLKPAKSA)”, in the data set with fibronectin [1], the “immobilization on ECM” value is “high efficacy”.
With “IGF-I: Human IGF-I, peptide hormone of 7.6 kDa, 70 amino acids”, in the data set with C2C12 myoblasts, the “bioactivity of immobilized IGF-I (cell proliferation)” value is on record as “confirmed; also recorded: preserved”. The “co-localization with fibronectin after conjugation to the ECM” value in the data set with fibronectin [2] is “confirmed the co-localization with fibronectin”. In addition, the “crosslinking of the complete protein, reaction kinetics by HPLC” value in the data set with Factor XIIIa (37° C., Tris buffer pH 7.6 (FIG. 4B)) is “exceptionally fast and efficient”. Besides, the “kinetics of the coupling reaction” value in the data set with Factor XIIIa (human factor XIIIa) was less than 2 min.
With Mecasermin: Recombinant human IGF-I, the half-life in [3] is 5.8 h.

B1: human Factor XIIIa (Fibrogammin, activated with 0.02 U/ml thrombin) (protein)
chain: GVNLQEFLNVTSVHLFKERWDTNKVDHHTDKYENNKLIVRRGQSFYVQIDFSRPYDPRRDLFRVEYVIGRYPQENKGTYIPVPIVSELQSGKWGAKIVMREDRSVRLSIQSSPKCIVGKFRMYVAVWTPYGVLRTSRNPETDTYILFNPWCEDDAVYLDNEKEREEYVLNDIGVIFYGEVNDIKTRSWSYGQFEDGILDTCLYVMDRAQMDLSGRGNPIKVSRVGSAMVNAKDDEGVLVGSWDNIYAYGVPPSAWTGSVDILLEYRSSENPVRYGQCWVFAGVFNTFLRCLGIPARIVTNYFSAHDNDANLQMDIFLEEDGNVNSKLTKDSVWNYHCWNEAWMTRPDLPVGFGGWQAVDSTPQENSDGMYRCGPASVQAIKHGHVCFQFDAPFVFAEVNSDLIYITAKKDGTHVVENVDATHIGKLIVTKQIGGDGMMDITDTYKFQEGQEEERLALETALMYGAKKPLNTEGVMKSRSNVDMDFEVENAVLGKDFKLSITFRNNSHNRYTITAYLSANITFYTGVPKAEFKKETFDVTLEPLSFKKEAVLIQAGEYMGQLLEQASLHFFVTARINETRDVLAKQKSTVLTIPEIIIKVRGTQVVGSDMTVTVEFTNPLKETLRNVWVHLDGPGVTRPMKKMFREIRPNSTVQWEEVCRPWVSGHRKLIASMSSDSLRHVYGELDVQIQRRPSM
With B1, the Crosslinking Efficacy (1:1 molar ratio) to the glutamine substrate derived from α2PI, 30 min, 10 U/ml FXIIIa, RP-HPLC in [4] amounted to 55.7%; in the data set with SEQ ID NO: 5 (-AS 67), 21.4%; in [5], 72.5%; in [6], 33.7%; in data set [7], 58.4%; with SEQ ID NO: 10 (-AS 67) it was 24.7%. The Crosslinking Efficacy (1:1 molar ratio) to the glutamine substrate derived from α2PI, 30 min, 10 U/ml FXIIIa, RP-HPLC stood at 44.2% in data set [8]; 39.3% in [9]; 82.9% in [10]; 49.5% in data set [11]; 84.2% in data set [12]; 69.4% in data set [13]. Besides, the “conversion in the time course of the coupling reaction between the Q peptide and the D domain” value in data set [10] is given as “achieving about 80% conversion within 10 minutes”.

Values taken from patent US20250115655A1, “PHARMACEUTICALS AND DEVICES FOR THE COVALENT IMMOBILIZATION TO THE EXTRACELLULAR MATRIX BY TRANSGLUTAMINASE” (JULIUS-MAXIMILIANS-UNIVERSITÄT WÜRZBURG, priority 2017, published 2025).
